The values below come from patent publication US20150202250A1.

The test concerns the target isolated NS2B-NS3 protein complex from the DENV-2 viral genome (Dengue virus type 2 (DENV-2)) (UniProt P14340). As to the kind of experiment: cell-based or functional assay.
UniProt P14340, sequence (P14340 1394-1440 limits assumed, chain 1 of 2): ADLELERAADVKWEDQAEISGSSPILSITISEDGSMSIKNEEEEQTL
UniProt P14340, sequence (P14340 1476-1660 limits assumed, chain 2 of 2): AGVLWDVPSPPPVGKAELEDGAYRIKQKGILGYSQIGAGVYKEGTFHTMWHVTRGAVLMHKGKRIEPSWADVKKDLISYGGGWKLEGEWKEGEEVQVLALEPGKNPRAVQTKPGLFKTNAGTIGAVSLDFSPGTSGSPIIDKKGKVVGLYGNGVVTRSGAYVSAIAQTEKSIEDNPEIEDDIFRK

B1: RetroMAD1 (protein)
chain: MGRICRCICGRGICRCICGVPGVGVPGVGGATGSDVNFDLSTATAKTYTKFIEDFRATLPFSHKVYDIPLLYSTISDSRRFILLDLTSYAYETISVAIDVTNVYVVAYRTRDVSYFFKESPPEAYNILFKGTRKITLPYTGNYENLQTAAHKIRENIDLGLPALSSAITTLFYYNAQSAPSALLVLIQTTAEAARFKYIERHVAKYVATNFKPNLAIISLENQWSALSKQIFLAQNQGGKFRNPVDLIKPTGERFQVTNVDSDVVKGNIKLLLNSRASTADENFITTMTLLGESVVEFPWALWKTMLKELGTMALHAGKAALGAAADTISQGTQVPGVGVPGVGKLAAALEHHHHHH
On to B1, for which the inhibition of NS2B-NS3 protease (cleavage of fluorogenic peptide substrate) (% inhibition at 10.8 µM) stood at 94.3.
